Measurements reported in the nanobody polyreactivity screen of Harvey et al. (2022).

Assay: yeast display, Sf9 membrane polyspecificity reagent, FACS + sequencing; frameworks hold sequencing errors
Method in brief: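 After 36–48 hours of galactose induction, yeast (Saccharomyces cerevisiae BJ5465) displaying a synthetic nanobody library were stained at 4 °C for 1 hour with 10% biotinylated, detergent-solubilized Sf9 membrane reagent. Streptavidin microbeads enriched the stained cells before FACS sorting into low and high (top ~1%) gates on anti-HA and streptavidin fluorescence. Each clone's polyreactivity label reflects its gate of origin.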

| Sequence | polyreactivity (PSR sort gate) |
| --- | --- |
| QVQLVESGGGLVQAGGSLRLSCAASGFIFKRYAMGWYRQAPGKERELVATISNSGGRTYYADSVKGRFTISRDNAKNTVYLQINSLKPEDTAVYYCDALPFWWGGYWGQGTQVTVSS | high polyreactivity |
| QVPLVESGGGLVQAGGSLRLSCAASGITFYYYTMGWYIQAPGKERELVAGITRGGRRYDADSVKGRFTISRDNAKNPVYLQMNSLKPEDTAVYYCNADDDIQYKGRYNYWGQGTQVTVSS | low polyreactivity |
| QVQLVESGGGLVQAGGSLRLSCAASGRTFQYYAMGWYRPAPGKERELVAALSSRGGSTYYADSVKGRFTISRDNAKNTVSLQMNSLKPEDTAVYYCAAYVLPRQRVRSDYWGQGTQVTVTS | high polyreactivity |
| QVQLVESGGGLVQAGGSLRLSCAASGRIFEWYAMGWYRQAPGKEREFVARITIGGRTYYADSVKGRFTISRDNAKNTVYFQMNSVKREDTAVYYCNAPYAWARPYIVSSTYDYWGQGTQVTVSS | high polyreactivity |
| QVQLVESCGGLVQAGGSLRLSCADSGRTFGSYAMGWYRQATRKDRELVASISRSGGTTYYADSVKGRFTLSRDNAKNTVYLQMYSQKPEDTAVYYCAAQYVRYGLYYWGQGTQVTVSS | high polyreactivity |
| QVQLVESGGGLVQAGGSLRISCDASGRTFYWNAMGWYRQAPGKEREFVAAITNTAVSTYYADSVKGRFTISRDNAKNTVYLQMNSLKPEATAVYYCAKSGNAGYRTYLRDYWGQGSQVTVSS | low polyreactivity |
| QVQLVESGGGLVQAGGSLRLSCAASGRIFRYNAMGLYRQAPGKERELVAVITSRGGRTYYADSVKGRFTISRDNAKNTVYLQMNSLKPEDTAVYYCTAKRYRYYRWYFTGKYDYWGQGTQVTVSS | high polyreactivity |
| QVQLVESGGGLVQAGGSLRLSCAASGRIFWDNAMGWYRQAPGKERELVAAIDYRGGNTNYADSVKGRFTISRDNAKNTVYFQMNSLKPEDTAVYYCNAEWAVRYPGYDYWGQGSQVTVSS | low polyreactivity |
| QVQLVESGGGLVQAGGSLRLSCAASGSTLEFNARGWYRQAPGKERELVAVINRSDGSTYYAASVKGRFTISRDNAKNTVYLQMNSLKPEDTAVYYCAADRHQVSVISTEDYWGQGTQVTVSS | low polyreactivity |
| QVQLVESCGGLVQEGGSLRLSSAASGSIRYYALGWYRQAPGKESELVAAISSRGTNTYYADSVKGSITISRDNAKNTVYLQMKSQKPEDTAVYYCNAVVGLGYNYWGQGTQVSVSS | high polyreactivity |
| QVQLVESGGGIVQAGGSLRLSCAASGRTFAYYTMGWYRQAPGKERELVARISNRGTNTYYADSVKGRFTISRDNAKNTVYLQMNSLKPEDTAVYYCAKYYYTSIVGYDSWGQGTQVTVSS | low polyreactivity |
| QVQLVESGGGLVQAGGSLRLSCAASGYIFRSYAMGWYRQAPGKERELVATISWIGGGTSYADSVKGRFTISRDNAKNTVYLQMNSLKPEDTAVYYCAAGPWAYGRRHAYYSRSFDYWGQGTQVTVSS | high polyreactivity |
| QVQLVESGGGLVQAGGSLRLSCAASGISFTYNTMGWSRQAPGKESELVAAITSGGGTNYADSVKGRFTISRDNAKNTVYLQMNSLKPEDTAVYYCAKDPGTVGPIWYDYWGQGTQVTVSS | low polyreactivity |
| QVQLVESGGGLVQAGGSLRLSCAASGRIFSYYALGWYRQAPGKERELVAAISSRGGSTYYADSVKGRFTISRDNAKNTVYLQMNSLKPEDTAVYYCNAYVYQVIGHDYWGQGTQVTVSS | high polyreactivity |
| QVQLVETGGGLVQAGGSLRLSCAASGSILYYKPMGWYRQAPGKERELVASISLTGGSTTYADSVKGRFTISRDNAKNTVYLQMNSLKPEDTAVYYCNATQYPAADRSTNNYGGGFDSWGQGTQVTVSS | low polyreactivity |
| QVQLVESGGGLVQAGGSLRLSCAASGFSFEGYAMGWYRQAPGKERELVAAISSNGGRTYYADSVKGRFTISRDNAKNTVYVLMNSLKPEDTAVYYCNARRAYSGPDYDYYHGRRYDYWGQGTQVSVSS | low polyreactivity |
| QVQLVESGGGLVQAGGSLRLSCAASGRIIVPYGMGWYRQAPGKERELVAAITTGGSTNYADSVKGRFTISRDNAKNTVYLQMNSLKPEDTAVYYCAVDWYPQLIYSFNSELEYWGQGTQVTVSS | low polyreactivity |
| QVQLVESGGGLVQAGGSLRLSCAASGLTFHRYAMGWYRQAPGKERELVAAINYSGGRTYYADSVKGRFTISRDNAKNTVYLQMNSLKPEDTAVYYCAAPRASGYYWGQGTQVTVSS | high polyreactivity |
| QVQLVESVGGLVQAGGSLRLSCAASGSNFPPYAMGWYRQAPGKERELVAAITSTDSTDYADSVKGRFTISRDNAKNTVYLQMNSLKPEDTAVYYCAAATGTYGRGGYYWGQGTQVTVSS | high polyreactivity |
| QVQLVESGGGLVQAGGSLRLSCAASGRTFYYYALGWYRQAPGKERELVAVIRSSGDSTYYADSVKGRFTISRDNANNTVYLQMNSLKPEDTAVYYCNADPGEVLVGYDYWGQGTQVTVSS | low polyreactivity |
| QVQLVESGGGLVQAGGSLRLSCAASGYILWNAMGCYRQAPGKDRELVAAISSGGSTNYADSVKGRFTISRDNAKNTVYLQMNSLKPEDTAVYYCNTDRFWPSDYWGQGTQVTVSS | low polyreactivity |
| QVQLVESGGGLVHAGGSLPLSCAASGRIFPGYAMRWYRQAPGKEREFVAAIRGTGTSTYYADSVKGRFTISRDNAKNTVYLQMNSLKPEDTAVYYCAASAGYAYNYWGQGTQVTVSS | low polyreactivity |

| Sequence | polyreactivity (PSR sort gate) |
| --- | --- |
| QVQLVESGGGLVQAGGSLRLICAASGSTFGRYAMGWYRQAPGKERELVAGITYGSTYYADSVKGRFTISRDNAKNTVYLQMHSLKPEDTAVYYCAADLSYTSVHGYRSDTLMDYWRQGTQVTVSS | low polyreactivity |
| QVHLVESGGVLVQAGCSLRLSCSASGSTFDFNAMGWYRQAPGKERELVAAITSGDSTNYADSVQGRFTISRDNAKNTVYLQMNSLKPEDTAVYYCAARYYWKYITSAARRAGSDYWGQGTQVTVSS | low polyreactivity |
| QVQLVESGGGLVQAGGSLRLSCAASGSIFDVYAMGWYRPAPGKEREFVATITTSGGNTYYADSVKGRFTISRDHAKNTVHLQMNSLKPEDTAVYYCAKDRVKSPYLVYDSWGQGTQGTVSS | low polyreactivity |
| QVQLVESGGGLVQAGGSLRLSCAASGRIFLVNTMGWYRQAPGKERELVATITFSVVRTYYADSVKGRFTISRDNAKNSVYLQMNSLKPEVTAVYYCAKQHLVSVPEMYYWGQGTQVTVSS | low polyreactivity |
| QVQHVESGRGLVQAGGSLRLSCAASGRISYYYAMGWSRQAPGKEMELVAAITNVGGTYYADSVKGRFTISRDNAKNTVYLQMNSLKQEDTAVFYCAKDFPARHNYWYSSRFFDYWGQGTQGTVSS | low polyreactivity |
| QVQLVESGGGLVQAGGSLRLSCAASGRIFYFYAMGGYRQAPGKERELVAAISRRGGTTNYADSVKGRFTISRDNAKNTVYLQMNSLKPEDTAVYYCAADYQSVGGAEYDYWGQGTQVTVSS | high polyreactivity |
| QVQLVESGGGLVQAGGSLRLSCAACGRIFGENAMGWYRQAPGKERELVASISSTDSTYYADSVKGRFTISRDNAKNTVYLQMNSLKPEDTAVYYSAARWISVWSEGAEHDYWGQGTQVTVSS | low polyreactivity |
| QVQLVESGGGLVQAGGILRLSCAASGRTFLVNAMGWYRQAPGKERELVAAISQRGGSTDYADSVKGRFTISRDNAKNTVYLQMNSLKPEDTAVYYCAVRWGYLYDYWGQGTQVTVSS | low polyreactivity |
| QDQLVESGGGLVQAGGSLRRSCAASGFTFFIYAMGWYRQAPGKEREFVAAITGSGGSTYYADSVKGRFTISRDNAKNTVYLQMNRLKPEDTAVYYCNKLSYGRSGYWGQGTQVTVSS | high polyreactivity |
| QVQLVESGGGLVQAGGSLRLSCAASGRIFYNYDMGWYRQAPGKERELVAAITSGGNTYADSVKGRFTISRDNAKNTVYLQMNSLKPEDTAVYYCNARDKFYVPSQYAYDYWGQGTQVTVSS | low polyreactivity |
| QVQLVESGGGVVQAGGSLRLSCAASGSTIYRYAMGWYRQAPGKEREFVPAITRTTARTYYADSVKGRFTFSRDNAKNTVYLQMNSLKPEDTAVYYCAADLYSWTWSGFRQYDSWGQGTQVTVSS | high polyreactivity |
| QVQLVESGGGLFQAGGSLRLSCAPSGRTFDYNAMGWYRQAPGKERELVAAISGSGTRTFYADSVKGRFTISRDNAKNTVYLQMNSLKPEDTAVYYCAASHGWSKSIFYYWGQGTQVTVSS | high polyreactivity |
| QVQLEESGGGLVQAGGSLRLSCAASGNIFPRYAMGWYRQAPGKERELVAAISYSGARTYYADSVKGRFTISRDNAKNTVYLQMNSLKPEDTAVYYCNKRVYYPWGQGTQVTVSS | high polyreactivity |
| QVQLVESGGGLVQAGGSLRLSCAASGRTFIEYAMGWYRQAPGKERELVAAISRNDGGSTYYADSVKGRFTISRDNAKNTVYLQMNSLKPEDTAVYYCAARRYISAHVRYGSWGQGTQVTVSS | high polyreactivity |
| QVQLVESGGRLVQAGGSLRLSCAASGRIYTPYAMGWYRQAPGTERELVAAISTIGGTTYADSVKGRFTISRDNAKNTVYLQMNSLKPEDTAVYYCNTRRTGRRSTTPGDYWGQGTQVTVSS | high polyreactivity |
| QVQLVESGGGLVQAGGSLRLSCAASGRTFHPYAMGWYRQAPGKERELVAAITISTNYADSVKGRFTISRDNAKNTVYLQMNSLKPEDTAVYYCNKDGTHEVYVGGYEDDYWGQGTQVTVSS | low polyreactivity |
| QVQLVESGGGLVQAGGSLRLSCAASGFTFYTNAMGWYRQAPGKERELVADITTSGGDTYYADSVKGRFTISRDNAKNTVYLQMNSLTPEDTAVYYCGEFWTYWGYGQYDYWGQCTQVTVSS | low polyreactivity |
| QVQLVESGGGLVQAGGSLRLSCAASGIIFASNAMGWYRQAPGKERELVAAINRSGGSTYYADSVKGRFTISRDNAKNTVYLQMNSMKPEDTAVYYCAADYRFYSPTKYSYDYWGQGTLVTVSS | high polyreactivity |
| QVQLVESGGGLVQAGGSLRLSCAASGSTFNLYAMGWYRPAPGKERELVAAISRGGSTYYADSVKGRFTISRDNAKNTVYLQMNSLKPEDTAVYYCAARSWYDRYPYYSWGQGTQVTVSS | high polyreactivity |
| QVQLVESGGGLVQAGGSLRLSCDASGLIFYSYAMGWYRQAPGKERELVAAISSRGGSTYYADSVKGRFTISRDNAKNTVYLQMNSLKQEDSAVYYCNAYFLLPHYDYWGQGTQVTVSS | low polyreactivity |
| QVQLVESGGGLVQAGGSLRLSCAASGRTFAPYVMGWYRQAPGKERELVAAITWSGGSTYYADSVKGRFTISRDNAKKTVYLQMNSLKPEDTAVYYCAVKGAGGPKYDYWGQGTQVTVSS | high polyreactivity |
